The source of these data is the supplement of paper PMC5998384.

In data set [1] the test system is HeLa Kyoto. Nature of the data set: solubility in G1/S (NP-40 vs SDS abundance) (log2 ratio); higher = more soluble. Conditions: cell cycle stage: G1/S.
In data set [2] the test system is HeLa Kyoto. The data set is described as follows: solubility change mitosis vs G1/S (difference of NP-40 vs SDS log2 ratios) (log2 ratio difference); higher = more soluble in mitosis.
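Wherever solubility change mitosis vs G1/S (difference of NP-40 vs SDS log2 ratios) is given: synchronized HeLa Kyoto cells (double thymidine block for G1/S, nocodazole release for mitosis), protein amounts in NP-40 versus SDS lysates quantified by mass spectrometry, three biological replicates.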
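Wherever solubility in G1/S (NP-40 vs SDS abundance) is given: HeLa Kyoto cells arrested at G1/S by double thymidine block, proteins quantified by TMT10plex mass spectrometry in mild NP-40 versus SDS extracts, three biological replicates.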

For “MRRSLAPSQLAKRKPEGRSCDDEDWQPGLVTPRKRKSSSETQIQECFLSPFRKPLSQLTNQPPCLDSSQHEAFIRSILSKPFKVPIPNYQGPLGSRALGLKRAGVRRALHDPLEKDALVLYEPPPLSAHDQLKLDKEKLPVHVVVDPILSKVLRPHQREGVKFLWECVTSRRIPGSHGCIMADEMGLGKTLQCITLMWTLLRQSPECKPEIDKAVVVSPSSLVKNWYNEVGKWLGGRIQPLAIDGGSKDEIDQKLEGFMNQRGARVSSPILIISYETFRLHVGVLQKGSVGLVICDEGHRLKNSENQTYQALDSLNTSRRVLISGTPIQNDLLEYFSLVHFVNSGILGTAHEFKKHFELPILKGRDAAASEADRQLGEERLRELTSIVNRCLIRRTSDILSKYLPVKIEQVVCCRLTPLQTELYKRFLRQAKPAEELLEGKMSVSSLSSITSLKKLCNHPALIYDKCVEEEDGFVGALDLFPPGYSSKALEPQLSGKMLVLDYILAVTRSRSSDKVVLVSNYTQTLDLFEKLCRARRYLYVRLDGTMSIKKRAKVVERFNSPSSPDFVFMLSSKAGGCGLNLIGANRLVMFDPDWNPANDEQAMARVWRDGQKKTCYIYRLLSAGTIEEKIFQRQSHKKALSSCVVDEEQDVERHFSLGELKELFILDEASLSDTHDRLHCRRCVNSRQIRPPPDGSDCTSDLAGWNHCTDKWGLRDEVLQAAWDAASTAITFVFHQRSHEEQRGLR [RAD54L]”, the “solubility in G1/S (log2)” value in data set [1] was -0.0919. For the same sequence, in data set [2], the “solubility change mitosis (log2)” value was -0.192.
The corresponding values for “MRSRVLWGAARWLWPRRAVGPARRPLSSGSPPLEELFTRGGPLRTFLERQAGSEAHLKVRRPELLAVIKLLNEKERELRETEHLLHDENEDLRKLAENEITLCQKEITQLKHQIILLLVPSEETDENDLILEVTAGVGGQEAMLFTSEIFDMYQQYAAFKRWHFETLEYFPSELGGLRHASASIGGSEAYRHMKFEGGVHRVQRVPKTEKQGRVHTSTMTVAILPQPTEINLVINPKDLRIDTKRASGAGGQHVNTTDSAVRIVHLPTGVVSECQQERSQLKNKELAMTKLRAKLYSMHLEEEINKRQNARKIQIGSKGRSEKIRTYNFPQNRVTDHRINKTLHDLETFMQGDYLLDELVQSLKEYADYESLVEIISQKV [MTRF1L]” are -0.0262 and 0.288.
As for “MSAAGAGAGVEAGFSSEELLSLRFPLHRACRDGDLATLCSLLQQTPHAHLASEDSFYGWTPVHWAAHFGKLECLVQLVRAGATLNVSTTRYAQTPAHIAAFGGHPQCLVWLIQAGANINKPDCEGETPIHKAARSGSLECISALVANGAHVDLRNASGLTAADIAQTQGFQECAQFLLNLQNCHLNHFYNNGILNGGHQNVFPNHISVGTNRKRCLEDSEDFGVKKARTEAQSLDSAVPLTNGDTEDDADKMHVDREFAVVTDMKNSSSVSNTLTNGCVINGHLDFPSTTPLSGMESRNGQCLTGTNGISSGLAPGQPFPSSQGSLCISGTEEPEKTLRANPELCGSLHLNGSPSSCIASRPSWVEDIGDNLYYGHYHGFGDTAESIPELNSVVEHSKSVKVQERYDSAVLGTMHLHHGS [ANKRD10]”, the “solubility in G1/S (log2)” value in data set [1] was determined as 0.0215. For the same sequence, the “solubility change mitosis (log2)” value in data set [2] is 0.112.
On to “MSANEDQEMELEALRSIYEGDESFRELSPVSFQYRIGENGDPKAFLIEISWTETYPQTPPILSMNAFFNNTISSAVKQSILAKLQEAVEANLGTAMTYTLFEYAKDNKEQFMENHNPINSATSISNIISIETPNTAPSSKKKDKKEQLSKAQKRKLADKTDHKGELPRGWNWVDVVKHLSKTGSKDDE [RWDD4]”, for which the “solubility in G1/S (log2)” value in data set [1] stood at 0.234. In addition, in data set [2], the “solubility change mitosis (log2)” value amounted to 0.301.
